Results on one molecule are retold here after patent US20210069342A1 (LEGOCHEM BIOSCIENCES, published 2021).

In experiment [1] the target is T1, human ROR1 expressed on the cell surface (human, UniProt Q01973 30-937).
T1 construct: whole, on cells; also called cell surface-expressed ROR1 antigen; ROR1 on JeKo-1, Mino, CHO-human ROR1, MC38-human ROR1 and other cancer cell lines
Description: flow cytometry on Jurkat cells (T cell leukemia), C2E3 IgG, FITC anti-human Fc detection. As to the method:
(§1) FACS analysis (FACSCalibur, BD Biosciences) was used to analyze the binding of the anti-ROR1 antibody of the present invention to ROR1 in the above cell lines.
(§2) Specifically, the respective cell lines were dissociated and washed in PBS, then the numbers of cells were counted and adjusted to 2×10⁵ cells/200 PBS. Then, they were treated with 10 /mL of the antibody of clone name C2E3 of the ROR1 monoclonal antibodies prepared in Embodiment 3, and reacted for 1 hour at 4° C. After the reaction, the cells were washed in PBS, then FITC-marked constant region (Fc) specific antibody (Goat anti-human IgG FITC conjugate, Fc specific, Sigma, F9512, concentration 20 mg/ml) was suspended in 2 /1×10⁵ cells/200 PBS and reacted for 1 hour at 4° C. After reacting, the cells were washed with PBS and analyzed with the FACSCalibur equipment. The negative control was only treated with FITC-marked constant region (Fc) specific antibody. To compare the degree of ROR1 expression among the respective cancer cell lines, the quotient of dividing the shifted readings for the experimental group treated with the ROR1 monoclonal antibody (C2E3) of the present invention by the shifted readings for the control group (MFI Ratio: MFI of anti-ROR1/MFI or 2nd Ab) is indicated.

Experiment [2] concerns the target T2, recombinant human ROR1-His (Sino Biological, 13968-H08H) (human, UniProt Q01973 30-406).
T2 construct: extracellular domain; Bought protein; also called ROR1-HIS protein; not shown: His tag
Description: ELISA, wells coated with human ROR1 protein (sheet: 'human ROR1'; text: ROR1-Fc or ROR1-His), IgG titrated, HRP anti-Fab detection, OD (450-650nm). As to the method: Anti-ROR1 antibody antigen binding affinity was assessed using an ELISA-based solution binding assay. Specifically, a 96-well microtiter plate (Nunc-Immuno Plates), NUNC) was coated for 16 hours at 4° C. with the ROR1 protein described below at a concentration of 1 in PBS solution, and non-specific binding sites were blocked for 2 hours with 3% BSA (bovine serum albumin). Here, the ROR1 protein used was, in the case of human ROR1, the ROR1-Fc or recombinant human ROR1-His (Sino Biological, 13968-H08H) of Embodiment 1. The ROR1-His used in ELISA, as stated in the above sentence, was a protein from the Sino Biological company (13968-H08H), and the ROR1-His of Embodiment 1 or recombinant mouse ROR1 protein was used (Acrobiosystems, RO1-M5221-100 )
Subsequently, the anti-ROR1 antibodies prepared in Embodiment 3 were added at the concentrations stated in FIG. 2 to a 96-well microtiter plate, and binding capacity was analyzed using ELISA as follows. Specifically, after incubating for 2 hours, the plate was washed 5 times with PBS containing 0.05% Tween 20, then HRP-conjugated Fab multiclonal antibody reagent (Perce, 31414) was diluted to 1:10,000 and placed in the washed microtiter plate. After reacting for 1 hour at 37° C., the ROR1 antibodies bonded to the plate were detected. After the reaction, color development was performed using TMB (Tetramethylbenzidine, Sigma, T0440). The enzymatic reaction was stopped using 0.5 mol/L sulfuric acid, and absorbance at 450 nm and 650 nm was measured (450 nm-650 nm) using a micro plate reader (Molecular Device)
(An ELISA detects its analyte on a solid surface through an enzyme-linked reagent.)

For experiment [3], the target named is T1, human ROR1 expressed on the cell surface. Description: flow cytometry on H460 cells (lung cancer), C2E3 IgG, FITC anti-human Fc detection. As to the method:
as §1, §2
In general terms: A flow cytometer gives signals particle by particle.

The target is the same in experiment [4]. Description: flow cytometry on MDA-MB-231 cells (breast cancer), C2E3 IgG, FITC anti-human Fc detection. As to the method:
as §1, §2

Experiment [5] shares this target. Description: flow cytometry on JeKo-1 cells (MCL), C2E3 IgG, FITC anti-human Fc detection. How it is done:
as §1, §2

Experiment [6] shares this target. Briefly: flow cytometry on MKN-28 cells (gastric cancer), C2E3 IgG, FITC anti-human Fc detection. As to the method:
as §1, §2

For experiment [7] the target is unchanged. Description: flow cytometry on HT29 cells (colon cancer), C2E3 IgG, FITC anti-human Fc detection. As to the method: as §1, §2
The target is the same in experiment [8]. Briefly: flow cytometry on HCT116 cells (colon cancer), C2E3 IgG, FITC anti-human Fc detection. As to the method:
as §1, §2

The target of experiment [9] is T2, recombinant human ROR1-His (Sino …). Briefly: BLI (Octet), ROR1-His on Anti-Penta-His or AR2G biosensor, IgG 30 to 0.021 nM, 1:1 fit. As to the method:
A 96-well black microplate (greiner bio one) was mounted on a biosensor tray case, and 200 10×KB or DW was added to each of 8 wells. Then Anti Penta His biosensors or 8 AR2G biosensors (ForteBio, USA) were inserted to hydrate for 10 minutes. 600 of the assay samples were diluted 2-fold or 3-fold to the appropriate assay concentrations, using 1×KB or 10×KB to 30 to 0.021 nM. To immobilize the antigen, recombinant human ROR1-His (Sino Biological, 13968-H08H) was diluted to 1 /ML with 10×KB or Sodium Acetate pH5 buffer. Immobilization was fixed at a threshold of 0.3 nm in the loading step. The association assay was carried out for 3 to 10 minutes, and the dissociation assay was carried out for 20 minutes. According to the Octet program template, the buffer was placed in a new 96-well black microplate according to order. As Baseline1, 200 10×KB or DW was placed. Then 200 each of 1 /mL of the antigen to be loaded, the ROR1-HIS protein, was added. As Baseline2, 200 10×KB or 1×KB was placed. Then to each well 30 to 0.021 nM of the diluted antibody and 200 each of 10×KB buffer or 1×KB corresponding to a reference blank was added. The temperature of the test plate was fixed at 30° C. After all of the samples were introduced, the equipment was started, and after the assay was completed, results were uploaded to the Octet Analysis 90 software, with KD values analyzed through 1:1 fitting. By obtaining KD values through the Octet assay method, it was confirmed that the anti-ROR1 antibody had strong binding potential to ROR1 antigen.
In general terms: Biolayer interferometry detects binding as a change in optical thickness at a sensor tip.

T1 sequence (Q01973 30-937): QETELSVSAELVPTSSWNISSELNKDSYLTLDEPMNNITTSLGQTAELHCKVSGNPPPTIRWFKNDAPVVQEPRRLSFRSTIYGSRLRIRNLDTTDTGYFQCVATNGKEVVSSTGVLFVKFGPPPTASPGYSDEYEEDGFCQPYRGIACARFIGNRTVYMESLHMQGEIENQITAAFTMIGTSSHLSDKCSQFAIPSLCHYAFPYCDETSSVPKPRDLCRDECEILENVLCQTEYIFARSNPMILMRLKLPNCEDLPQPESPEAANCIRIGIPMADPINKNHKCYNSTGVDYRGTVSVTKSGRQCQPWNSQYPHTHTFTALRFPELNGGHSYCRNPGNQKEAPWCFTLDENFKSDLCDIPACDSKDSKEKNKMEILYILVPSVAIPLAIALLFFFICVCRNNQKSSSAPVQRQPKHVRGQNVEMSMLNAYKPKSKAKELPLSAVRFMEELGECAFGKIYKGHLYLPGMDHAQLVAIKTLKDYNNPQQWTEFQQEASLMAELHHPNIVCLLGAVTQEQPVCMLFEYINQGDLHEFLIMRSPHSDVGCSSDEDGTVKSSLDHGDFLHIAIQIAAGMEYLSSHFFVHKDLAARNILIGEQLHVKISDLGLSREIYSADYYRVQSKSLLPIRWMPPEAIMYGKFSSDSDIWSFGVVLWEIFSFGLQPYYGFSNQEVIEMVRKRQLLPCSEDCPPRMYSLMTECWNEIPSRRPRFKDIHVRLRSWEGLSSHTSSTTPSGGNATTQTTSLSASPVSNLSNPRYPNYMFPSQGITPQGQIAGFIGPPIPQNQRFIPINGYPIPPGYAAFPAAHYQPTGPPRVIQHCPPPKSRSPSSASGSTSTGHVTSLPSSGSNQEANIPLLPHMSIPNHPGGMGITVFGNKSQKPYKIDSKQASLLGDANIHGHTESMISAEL
T2 sequence (Q01973 30-406): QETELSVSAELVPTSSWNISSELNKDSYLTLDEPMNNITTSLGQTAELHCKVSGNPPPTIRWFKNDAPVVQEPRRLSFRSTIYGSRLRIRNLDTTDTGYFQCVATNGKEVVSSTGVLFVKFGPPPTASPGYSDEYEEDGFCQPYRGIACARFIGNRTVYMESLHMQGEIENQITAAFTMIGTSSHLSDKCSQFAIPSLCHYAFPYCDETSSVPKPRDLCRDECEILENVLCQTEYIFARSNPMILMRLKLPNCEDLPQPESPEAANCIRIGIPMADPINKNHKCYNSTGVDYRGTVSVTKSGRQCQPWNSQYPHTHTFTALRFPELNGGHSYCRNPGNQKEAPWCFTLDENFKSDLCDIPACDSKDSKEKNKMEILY

B1: anti-ROR1 IgG antibody C2E3 (antibody, V domains shown)
VH: EVQLLESGGGLVQPGGSLRLSCAASGFTFSNYAMSWVRQAPGKGLEWVSSISHNSGSTYYADSVKGRFTISRDNSKNTLYLQMNSLRAEDTAVYYCAKFISARKSLGRSYSNGMDVWGQGTLVTVSS
VL: QSVLTQPPSASGTPGQRVTISCTGSSSNIGSNDVTWYQQLPGTAPKLLIYADSKRPSGVPDRFSGSKSGTSASLAISGLRSEDEADYYCGTWDYSLSGYVFGGGTKLTVLG
notes: Full IgG form (human IgG1 constant region, lambda light chain), expressed in CHO-S cells
Take B1: the “Mean Fold Ratio (MFI of anti-ROR1 / MFI of 2nd Ab)” value came to 1.7 in [1]; 10.9 in experiment [3]; 8.8 in [4]; 4 in experiment [5]; 4.9 in [6]; 3.9 in [7]. The “Mean Fold Ratio (MFI of anti-ROR1 / MFI of 2nd Ab)” value in [8] turned out to be 18. The half-maximal effective concentration (EC50 (read off the curve)) (usually the concentration needed to bring the measured effect to its halfway point) in experiment [2] was ~0.2 nM. For the same molecule, the association rate constant (kon) (in general, the second-order rate constant of association) in [9] amounted to 5.46e+06 M⁻¹ s⁻¹.
